In patent publication US7176293B1, “Compositions and methods to enhance sensitivity of cancer cells to mitotic stress” (The Wistar Institute of Anatomy and Biology, priority 1999, dated 2007):

What was measured:
Format in all cases: cell-based, human
[1] = test system: DLD1 cells; test: Entry into metaphase of synchronized DLD1-neo and DLD1-chfr cells under mitotic stress; settings: synchronized DLD1-chfr vs DLD1-neo; drug added 12 hours after release from the G1-S block
Experimental: All cancer cells were grown in DMEM supplemented with glutamine, penicillin, streptomycin and 10% fetal bovine serum (Life Sciences). Normal human epidermal keratinocytes and osteoblasts were grown in KGM2 and OGM media, respectively (Clonetics). The cells were examined either non-synchronized or synchronized. For synchronization, the cells were treated with 2 mM thymidine for 16 hours, then with 0.25 mM thymidine/deoxycytidine for 9 hours, and then with 0.5 μg/ml aphidicolin for 20–24 hours. The cells were washed three times with PBS between each step [Janss et al., 1998, Exp. Cell Res., 243:29–38]. To induce mitotic stress, synchronized or non-synchronized cells were exposed to 0.5 μg/ml nocodazole, 5 μM of the TAXOL™ drug or 0.5 μg/ml colcemid. Cells were grown on 8-well culture slides coated with human fibronectin (Becton Dickinson) and were examined as either non-synchronized or synchronized cells. […] The slides were sealed with coverslips using Fluoromount-G (Upstate Biotechnology) and visualized with a fluorescence microscope (Leica). […] Progression through the cell cycle was monitored by measuring the mitotic index and by flow cytometric analysis of the DNA content of the cells.

[2] = test system: SAOS2 cells; test: Mitotic index of transiently-transfected SAOS2 cells exposed to the TAXOL drug; settings: SAOS2, TAXOL drug added 36 hours after transfection; 12, 14 and 16 hour timepoints
Experimental: (§1) Stable transfectants were prepared by transfecting DLD1 or U20S cells with 5 μg pSV2-HAchfr or pSV2-HAchfr-M580, or 5 μg pSV2 vector without insert and 1 μg pSV7neo plasmid [Wieczorek et al., supra] using Fugene-6 transfection reagent (Roche). Stably transfected cells were selected with G418. For transient expression, DLD1 or U20S cells were transfected with 5 μg pSV2-HAchfr or pSV2-HAchfrM580 or pSV2 plasmid without insert and 2 μg of a plasmid expressing green fluorescent protein using Fugene-6. SAOS2 cells were transfected as described above, except that the plasmids expressing Chfr were cotransfected with a plasmid expressing green fluorescent protein (GFP).
(§2) Cells were grown on 8-well culture slides coated with human fibronectin (Becton Dickinson) and were examined as either non-synchronized or synchronized cells. […] The slides were sealed with coverslips using Fluoromount-G (Upstate Biotechnology) and visualized with a fluorescence microscope (Leica). […]
Chfr-ΔFHA, a Chfr protein with deletion of residues 2–142 encompassing the FHA domain, was identified as a dominant negative mutant by studying its function in DLD 1 cells. […] 36 hours later, mitotic stress was induced by exposure to the TAXOL™ drug and the mitotic index was determined 8 to 16 hours late. Protein levels were determined by immunoblotting with an antibody that recognizes the N-terminal HA tag of the expressed Chfr proteins. […]

[3] = test system: DLD1 cells; test: Mitotic index of unsynchronized DLD1 cells stably expressing Chfr or Chfr-A325, exposed to nocodazole; settings: stably transfected unsynchronized DLD1 cells
From the text: To determine whether ubiquitin-protein ligase activity is required for checkpoint function, the Chfr mutant that substitutes Cys325 of the ring finger with Ala was stably-expressed in DLD1 cells. These cells were then exposed to mitotic stress and examined for entry into metaphase. The mitotic index of unsynchronized DLD1 cells exposed to nocodazole is high, indicating the absence of a checkpoint that would delay entry into metaphase in response to mitotic stress.

[4] = test system: DLD1 and U20S cells; test: Mitotic index of stably transfected DLD1 and U20S cells in response to nocodazole
Experimental: as §1, §2
To determine whether Chfr accounted for the different response, DLD1 and U20S cells were prepared to stably express HA-tagged wild-type Chfr or Chfr with the […] substitution (M580) or just the neo selectable marker. […] Furthermore, the different effects of wild-type Chfr and Chfr-M580 could not be attributed to differences in protein expression, as determined by immunoblotting. […]

B1: wild-type Chfr: 664 amino acid human checkpoint protein with FHA and ring finger domains, SEQ ID NO: 2; HA-tagged when expressed in cells (protein, listed as Homo sapiens)
chain: MERPEEGKQSPPPQPWGRLLRLGAEEGEPHVLLRKREWTIGRRRGCDLSFPSNKLVSGDHCRIVVDEKSGQVTLEDTSTSGTVINKLKVVKKQTCPLQTGDVIYLVYRKNEPEHNVAYLYESLSEKQGMTQESFEANKENVFHGTKDTSGAGAGRGADPRVPPSSPATQVCFEEPQPSTSTSDLFPTASASSTEPSPAGRERSSSCGSGGGGISPKGSGPSVASDEVSSFASALPDRKTASFSSLEPQDQEDLEPVKKKMRGDGDLDLNGQLLVAQPRRNAQTVHEDVRAAAGKPDKMEETLTCIICQDLLHDCVSLQPCMHTFCAACYSGWMERSSLCPTCRCPVERICKNHILNNLVEAYLIQHPDKSRSEEDVQSMDARNKITQDMLQPKVRRSFSDEEGSSEDLLELSDVDSESSDISQPYVVCRQCPEYRRQAAQPPHCPAPEGEPGAPQALGDAPSTSVSLTTAVQDYVCPLQGSHALCTCCFQPMPDRRAEREQDPRVAPQQCAVCLQPFCHLYWGCTRTGCYGCLAPFCELNLGDKCLDGVLNNNSYESDILKNYLATRGLTWKNMLTESLVALQRGVFLLSDYRVTGDTVLCYCCGLRSFRELTYQYRQNIPASELPVAVTSRPDCYWGRNCRTQVKAHHAMKFNHICEQTRFKN
modifications: HA tag when expressed
notes: HA-tagged when expressed in cells
[1]
  entry into metaphase in response to mitotic stress: delays entry into metaphase
[2]
  effect on mitotic index compared to cells transfected with empty vector: no effect
[3]
  mitotic index after exposure to nocodazole: low mitotic index
[4]
  mitotic index in response to nocodazole: low mitotic index
